Source: article PMC9135737

Target: Roseovarius indicus B108 MmtN (the sample called MmtN in the DLS analysis) (Roseovarius indicus B108)
Test: dynamic light scattering; DynaPro NanoStar, 4 °C, 2 μl of 2.5 mg ml^-1 protein in 10 mM Tris-HCl, 100 mM NaCl, pH 8.0

stoichiometry N: 3
Substance: Roseovarius indicus B108 MmtN (the sample called MmtN in the DLS analysis) (enzyme)
